Source: PMC5498992
Values joined by “and” are separate entries in the source; they are usually repeats but may differ in a detail not shown here. Identical values can stand only once.

Molecular target: chitin binding domain-intein fusion of the ToxR periplasmic domain (CBDI-ToxRp) (V. cholerae El Tor N16961), P15795
Assay: pull-down

B1: ToxS periplasmic domain (ToxSp), purified, cleaved from the chitin binding domain-intein tag, P24003 25-173 (domain or fragment)
chain: SDFKLEQVLTSREWQSKMVSLIKTNSNRPAMGPLSRVDVTSNVKYLPNGTYLRVSIVKLFSDDNSAESVINISEFGEWDISDNYLLVTPVEFKDISSNQSKDFTDEQLQLITQLFKMDAQQSRRVDIVNERTILFTSLSHGSTVLFSNS
modifications: not checked
percent of input pulled down: 6% and 9%
